Measurements: article PMC7356834

Columns and labels:
[1] = system: T1, APASM_1021 (AdpA-like protein) (Actinosynnema pretiosum ATCC 31280), ORF:1b9350d8; assay: competition; conditions: 10 mM Tris-HCl pH 7.5, 1 mM EDTA, 100 mM KCl, 5% glycerol, 0.1 DTT (unit not given), 0.01 mg/mL BSA; 30 min at 30 C; 10% native PAGE at 4 C
T1 sequence: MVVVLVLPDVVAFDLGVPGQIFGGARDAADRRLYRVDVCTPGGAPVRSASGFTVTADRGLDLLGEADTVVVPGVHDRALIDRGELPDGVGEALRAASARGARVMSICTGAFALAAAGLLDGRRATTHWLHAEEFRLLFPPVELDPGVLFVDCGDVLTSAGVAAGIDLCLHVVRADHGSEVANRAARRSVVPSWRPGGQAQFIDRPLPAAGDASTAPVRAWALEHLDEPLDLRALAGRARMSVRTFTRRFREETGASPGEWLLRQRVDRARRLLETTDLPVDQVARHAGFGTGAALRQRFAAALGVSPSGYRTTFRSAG

[2] = system: T1, APASM_1021 (AdpA-like protein) (Actinosynnema pretiosum ATCC 31280), ORF:1b9350d8; assay: EMSA; conditions: 10 mM Tris-HCl pH 7.5, 1 mM EDTA, 100 mM KCl, 5% glycerol, 0.1 DTT (unit not given), 0.01 mg/mL BSA; 30 min at 30 C; 10% native PAGE at 4 C

| Sequence | binding [1] | binding [2] |
| --- | --- | --- |
| TGGAGCCGCTGACGGGGAGCCATCGACGGGAAGCCGCTGACCGGCCTCTCCGCGCCGCCACGCGGGCGCCGCACCTGAACCAGGTGCGGCGCCCGCGTGGTCGCGCCCTTTGACCCCGCCCCCGTTCCCCT (double strand) [P4178 unlabeled competitor] | binds |  |
| TGGAGCCGCTGACGGGGAGCCATCGACGGGAAGCCGCTGACCGGCCTCTCCGCGCCGCCACGCGGGCGCCGCACCTGAACCAGGTGCGGCGCCCGCGTGGTCGCGCCCTTTGACCCCGCCCCCGTTCCCCT (double strand) [P4178] |  | binds |
